According to US20240156870A1 (NATIONAL RESEARCH COUNCIL OF CANADA, published 2024):
Where two headings read alike, the source gives them in different places.

Tests used:
[1] = target: T1, human EGFR-Fc fusion protein (human, UniProt P00533 25-645); assay: SPR, VHH over human EGFR-Fc;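 further: Single-cycle kinetics on Biacore T200 at 25 °C in HBS-EP, monomeric VHHs at 0.6–50 nM flowed over immobilized EGFR, 180 s association, 600 s dissociation, ethanolamine-blocked reference cell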
T1 construct: Bought; not shown: Fc part of the bought fusion

[2] = target: T1, human EGFR-Fc fusion protein; assay: SPR single-cycle, VHH over amine-coupled human EGFR-Fc
Procedure: (§1) In the second SPR experiment, single-cycle kinetic analyses were performed on a Biacore™ T200 instrument (GE Healthcare) at 25° C. in HBS-EP buffer. […] An ethanolamine-blocked flow cell served as the reference. Monomeric VHHs at concentrations ranging from 0.6 to 50 nM were injected over the EGFR surfaces in HBS-EP buffer at a flow rate of 40 μL/min. The contact time was 180 s and the dissociation time was 600 s. The EGFR surfaces were regenerated using a 10 s pulse of 10 mM glycine, pH 1.5.

[3] = target: T2, rhesus EGFR-Fc fusion protein (rhesus, UniProt P55245 25-645); assay: SPR single-cycle, VHH over amine-coupled rhesus EGFR-Fc
T2 construct: Bought; not shown: Fc part of the bought fusion

[4] = target: T2, rhesus EGFR-Fc fusion protein; assay: as above; remark: listed apart in the source
Procedure: as §1

[5] = target: T3, recombinant 6xHis-tagged human EGFR ectodomain (human, UniProt P00533 25-645); assay: SPR multi-cycle, EGFR ectodomain over amine-coupled NRC-sdAb032
T3 construct: extracellular domain; Bought; also called recombinant human EGFR; EGFR extracellular domain; not shown: 6xHis tag

[6] = target: T4, mouse EGFR-Fc fusion protein (mouse, UniProt Q01279 25-647); assay: ELISA, VHH titrated from about 0.5 to 1000 ng/mL, OD 450 nm
T4 construct: Bought; not shown: Fc part of the bought fusion

[7] = target: T3, recombinant 6xHis-tagged human EGFR …; assay: SPR (value of Table 2 repeated in Table 6)
Procedure: (§2) In the first SPR experiment, multi-cycle kinetic analyses were performed on a Biacore™ 3000 instrument (GE Healthcare) at 25° C. in HBS-EP buffer [10 mM HEPES, pH 7.4, containing 150 mM NaCl, 3 mM EDTA and 0.005% (w/v) surfactant P20]. […] An ethanolamine-blocked flow cell served as the reference. Monomeric VHHs at concentrations ranging from 0.1 to 100 nM were injected over the EGFR and EGFRvIII surfaces in HBS-EP buffer at a flow rate of 20 μL/min. […] Contact times were 180-300 s and dissociation times were 300-600 s.

[8] = target: recombinant human EGFRvIII ectodomain (human) (UniProt P00533); assay: SPR multi-cycle, VHH over amine-coupled EGFRvIII ectodomain
[9] = target: T4, mouse EGFR-Fc fusion protein; assay: SPR single-cycle, VHH over amine-coupled mouse EGFR-Fc
Procedure: as §1

[10] = target: T3, recombinant 6xHis-tagged human EGFR …; assay: SPR multi-cycle, VHH over amine-coupled EGFR ectodomain
Procedure: as §2

[11] = target: T1, human EGFR-Fc fusion protein; assay: ELISA, VHH titrated from about 0.5 to 1000 ng/mL, OD 450 nm
[12] = target: T2, rhesus EGFR-Fc fusion protein; assay: as above
[13] = target: T1, human EGFR-Fc fusion protein; assay: as above; remark: listed apart in the source
[14] = target: T2, rhesus EGFR-Fc fusion protein; assay: as above; remark: listed apart in the source
[15] = target: T4, mouse EGFR-Fc fusion protein; assay: as above; remark: listed apart in the source
[16] = target: T1, human EGFR-Fc fusion protein; assay: as above; remark: listed apart in the source
[17] = target: T2, rhesus EGFR-Fc fusion protein; assay: as above; remark: listed apart in the source
[18] = target: T4, mouse EGFR-Fc fusion protein; assay: as above; remark: listed apart in the source

Row | Kd [1] [nM] | koff [1] [s⁻¹] | kon [1] [M⁻¹ s⁻¹] | Kd [2] [nM] | koff [2] [s⁻¹] | kon [2] [M⁻¹ s⁻¹] | koff [3] [s⁻¹] | kon [3] [M⁻¹ s⁻¹] | Kd [4] [nM] | Kd [8] [nM] | koff [8] [s⁻¹] | kon [8] [M⁻¹ s⁻¹] | Kd [9] [nM] | koff [9] [s⁻¹] | kon [9] [M⁻¹ s⁻¹] | Kd [10] [nM] | koff [10] [s⁻¹] | kon [10] [M⁻¹ s⁻¹] | also measured | Binder
1 | 6.9 | 0.0025 | 360000 | 6.9 | 0.0025 | 360000 | 0.0039 | 480000 | 8.1 | – | – | – | – | – | – | – | – | – | Kd [5]: 12.9 nM; koff [5]: 0.0013 s⁻¹; kon [5]: 100000 M⁻¹ s⁻¹; binding result [6]: no binding (tested: 1000 ng/mL) | NRC-sdAb032 (VHH, Monomeric llama VHH; in ELISA a version with biotin acceptor peptide and 6xHis was used; also called EVE46; not shown: C-terminal c-Myc and 6xHis tags) VHH: QVKLEESGGGLVQPGGSLRLSCSASGSISSISVMGWYRQAPGKQRELVARITSGGISNYVDSVKGRFTISGDSAKNIVYLQMNSLKPEDTAVYYCYMYVHVGYWVDYWGQGTQVTVSS
2 | 6 | 0.00055 | 92000 | 6 | 0.00055 | 92000 | – | – | – | 8.6 | 0.00084 | 98000 | 11.6 | 0.0075 | 650000 | 9 | 0.00075 | 84000 | Kd [7]: 9 nM; EC50 (read off the curve) [11]: ~0.007 µg/mL; binding result [12]: no binding (tested: 1000 ng/mL) | NRC-sdAb028 (VHH, Monomeric llama VHH; in ELISA a version with biotin acceptor peptide and 6xHis was used; also called EGFR10; not shown: C-terminal c-Myc and 6xHis tags) VHH: EVQLVESGGGLVQPGGSLRLSCTVSGSFFSRDAMGWHRQAPGKQREMVAGISSGGLSNHAESVKGRFTISRDNSKNTVYLQMNNLKPEDTAVYYCSIYEDGVWTSWGQGTQVTVSS
3 | 1.8 | 0.00016 | 90000 | 1.8 | 0.00016 | 90000 | 0.00011 | 110000 | 1 | – | – | – | 3.1 | 0.00028 | 92000 | 1.1 | 0.00017 | 150000 | EC50 (read off the curve) [13]: ~0.02 µg/mL; EC50 (read off the curve) [14]: ~0.02 µg/mL; EC50 (read off the curve) [15]: ~0.02 µg/mL | NRC-sdAb033 (VHH, Monomeric llama VHH; in ELISA a version with biotin acceptor peptide and 6xHis was used; also called EVE48; not shown: C-terminal c-Myc and 6xHis tags) VHH: QVQLVESGGGLVQPGGSLRLSCAASESIDSIYVMQWYRQAPEKPRDVVATLTPGGGSYYPEAVLGRFTISRDDAKNTVYLQMNSLKPEDTAVYYCNAFHRLRGTHYWGQGTQVTVSS
4 | 8.9 | 0.0022 | 250000 | 8.9 | 0.0022 | 250000 | 0.0017 | 85000 | 19.6 | 2.6 | 0.00077 | 290000 | – | – | – | 1.7 | 0.00067 | 400000 | EC50 (read off the curve) [16]: ~0.003 µg/mL; EC50 (read off the curve) [17]: ~0.004 µg/mL; binding result [18]: no binding (tested: 1000 ng/mL) | NRC-sdAb022 (VHH, Monomeric llama VHH; in ELISA a version with biotin acceptor peptide and 6xHis was used; Stands for the 'NRC-sdAb022-family' in the cross-species and binning sentences; also called EGFR2; NRC-sdAb022-family VHHs; not shown: C-terminal c-Myc and 6xHis tags) VHH: QVQLVESGGGLVQPGGSLKLSCAVSGFAFERNGVSWYRQAPGKQREFVAVISSGTTTYKDSVKGRFTISRDNTRNTAYLQMNNLKPEDTAVYYCNLVPPTPYWGQGTQVTVSS
